This series deals with Saccharomyces cerevisiae. In words: protein stability index of tFT-peptide fusion (C-terminal peptide) (PSI (0-1 scale)); higher = more stable (slower turnover). Particulars: temperature: 30 C. The procedure: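 MPS profiling in S. cerevisiae of the yeast C-terminome library: the last 12 aa of each annotated ORF are fused to the C-terminus of a sfGFP-mCherry timer, after a GGGS linker. Cells are FACS-sorted into 8 mCherry/sfGFP bins and deep-sequenced. PSI runs from 0 (unstable) to 1 (stable); wild type and das1Δ backgrounds, two technical replicates each.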

Where [1] appears, read: genetic background: das1 deletion.

± gives the standard deviation of the averaged measurements.

Turning to HFANFKRTIEEK [AMD1 C-terminal 12 aa], the protein stability index was determined as 0.729 ± 0.049 under setting [1] and 0.6925 ± 0.0065 (genetic background: wild type).
As for “HFCYIGRITTHT [YDL114W-A C-terminal 12 aa]”, the protein stability index runs as follows: under setting [1], 0.681 ± 0.017; (genetic background: wild type) 0.689 ± 0.018.
For the sequence “HFLQKFFKLFDN [YMR052C-A C-terminal 12 aa]”, the protein stability index is 0.734 ± 0.0093 under setting [1] and 0.687 ± 0.015 (genetic background: wild type).
In the same order, the values of HGGTISLCRFGG [SWT21 C-terminal 12 aa] are 0.686 ± 0.023 and 0.658 ± 0.015.
In turn, HGNVFHIESICG [YLL047W C-terminal 12 aa] returned a protein stability index under setting [1] of 0.655 ± 0.053 and a protein stability index (genetic background: wild type) of 0.737 ± 0.031.
As for HGRESANGISKQ [YLR374C C-terminal 12 aa], the protein stability index is, setting by setting: under setting [1], 0.679 ± 0.015; (genetic background: wild type) 0.65531 ± 0.00026.
Take HGTAKALAAAKK [RPL29 C-terminal 12 aa]: the protein stability index was 0.7098 ± 0.0054 under setting [1] and 0.6697 ± 0.0058 (genetic background: wild type).
With HIRKERTLYIYI [PIH1 C-terminal 12 aa], the protein stability index turned out to be 0.60684 ± 0.00034 under setting [1] and 0.351 ± 0.0044 (genetic background: wild type).
Take HKKEVVSKGDDY [MAP2 C-terminal 12 aa]: the protein stability index is 0.6695 ± 0.0046 under setting [1] and 0.653 ± 0.026 (genetic background: wild type).
For HLGKFFVKQKIL [ERP1 C-terminal 12 aa], the protein stability index under setting [1] is 0.696 ± 0.042 and the protein stability index (genetic background: wild type) came out at 0.152 ± 0.0043.
With HLSGSTIDTTVV [DSE1 C-terminal 12 aa], the protein stability index is, setting by setting: under setting [1], 0.6624 ± 0.0029; (genetic background: wild type) 0.685 ± 0.012.
HSDSADTHTHKH [MMT2 C-terminal 12 aa] registered a protein stability index under setting [1] of 0.693 ± 0.025 and a protein stability index (genetic background: wild type) of 0.696 ± 0.029.
On to HSITEGSYIYIK [YOR062C C-terminal 12 aa], for which the protein stability index is, setting by setting: under setting [1], 0.687 ± 0.062; (genetic background: wild type) 0.676 ± 0.05.
For “HSVWSQSTINND [YML034C-A C-terminal 12 aa]”, the protein stability index runs as follows: under setting [1], 0.725 ± 0.015; (genetic background: wild type) 0.702 ± 0.066.
In the same order, the values of HVCVDVDVIVST [TRM12 C-terminal 12 aa] are 0.6505 ± 0.0056 and 0.6574 ± 0.001.
For HVKDHQPGKPFI [YDR433W C-terminal 12 aa], in that order: 0.689 ± 0.023 and 0.708 ± 0.063.
For “HYPSSDIRGDIL [YOR161C-C C-terminal 12 aa]”, in that order: 0.6911 ± 0.0014 and 0.69973 ± 0.00023.
For the sequence IAFPQRKYAIKA [RPL35A C-terminal 12 aa], the protein stability index by setting is: under setting [1], 0.299 ± 0.024; (genetic background: wild type) 0.33 ± 0.01.
In the same order, the values of IASQNSLGWNEV [MSB2 C-terminal 12 aa] are 0.69667 ± 0.00047 and 0.693 ± 0.024.
ICYTFKHLVSHK [FRT2 C-terminal 12 aa]: the protein stability index by setting is: under setting [1], 0.691 ± 0.016; (genetic background: wild type) 0.6574 ± 0.0033.
In the case of IDEMYRGGISMN [AIM32 C-terminal 12 aa], the protein stability index reads like this: under setting [1], 0.693 ± 0.013; (genetic background: wild type) 0.69 ± 0.024.
IEAPQFYRYWSA [SWI3 C-terminal 12 aa] registered a protein stability index under setting [1] of 0.724 ± 0.033 and a protein stability index (genetic background: wild type) of 0.706 ± 0.011.
IEEMLEIISGYA [RPC17 C-terminal 12 aa]: the protein stability index by setting is: under setting [1], 0.5664 ± 0.0013; (genetic background: wild type) 0.584 ± 0.008.
IEERLVAIAEQD [SCL1 C-terminal 12 aa]: the protein stability index is, setting by setting: under setting [1], 0.7091 ± 0.0065; (genetic background: wild type) 0.7 ± 0.017.
As for IELIQNMNKESF [YOR131C C-terminal 12 aa], the protein stability index under setting [1] came to 0.696 ± 0.03 and the protein stability index (genetic background: wild type) was 0.692 ± 0.015.
As for IEQYLQTYGASA [URA5 C-terminal 12 aa], the protein stability index by setting is: under setting [1], 0.708 ± 0.011; (genetic background: wild type) 0.695 ± 0.014.
IEVGADSYAEEF [TUB3 C-terminal 12 aa]: the protein stability index under setting [1] was 0.689 ± 0.018 and the protein stability index (genetic background: wild type) came to 0.671 ± 0.014.

The record behind these values is the supplement of paper PMC10724198.
